The source of these data is the DeepSol protein solubility set.

The nature of this data set: soluble on expression in E. coli; label from the status in PepcDB or PDB records.
For “AARRKIAKDLGKQVTQAMQTLSMQGGRFEAALTGGAPSAHGSEQVEFLVAGHAGSTPRPLAKVASGGELSRISLALSVIASRAARVPTLIFDEVDSGVGGAVAEAVGKLLRELGQRHQVLCVTHLPQVAACAHAQYRVSKVESGGSTRSRIAELDAEARVEEVARMLGGIKITATTRDHAREMLGGHTAPAA”, the “soluble on expression in E. coli” value is “not soluble”.

With “AAVIEKRATCSNGKTVGDASCCAWFDVLDDIQQNLFHGGQCGAEAHESIRLVFHDSIAISPAMEAQGKFGGGGADGSIMIFDDIETAFHPNIGLDEIVKLQKPFVQKHGVTPGDFIAFAGAVALSNCPGAPQMNFFTGRAPATQPAPDGLVPEPFHTVDQIINRVNDAGEFDELELVFMLSAHSVAAVNDVDPTVQGLPFDSTPGIFDSQFFVETQLRGTAFPGSGGNQGEVESPLPGEIRIQSDHTIARDSRTACEWQSFVNNQSKLVDDFQFIFLALTQLGQDPNAMTDCSDVIPQSKPIPGNLPFSFFPAGKTIKDVEQACAETPFPTLTTLPGPETSVQRIPPPPGA”, the “soluble on expression in E. coli” value was “soluble”. For “ACAWLEAQEEEEVGFPVRPQVPLRPMTYKAAVDLSHFLKEKGGLEGLIHSQRRQDILDLWIYHTQGYFPDWQNYTPGPGVRYPLTFGWCYKLVPVEPDKVEEANKGENTSLLHPVSLHGMDDPEREVLEWRFDSRLAFHHVARELHPEYFKN” the value was “soluble”; for “ACTKNAIAQTGFNKDKYFNGDVWYVTDYLDLEPDDVPKRYCAALAAGTASGKLKEALYHYDPKTQDTFYDVSELQVESLGKYTANFKKVDKNGNVKVAVTAGNYYTFTVMYADDSSALIHTCLHKGNKDLGDLYAVLNRNKDAAAGDKVKSAVSAATLEFSKFISTKENNCAYDNDSLKSLLTK”, “soluble”; for “ADKNPGSENMTNTIGPHDRGGSSPIYNILNSYLTAYNGSHHLYDRMSFLCLSSQNTLNGACPSSDAPGTATIDGETNITLQFTEKRSLIKRELQIKGYKQFLFKNANCPSKLALNSSHFQCNREQASGATLSLYIPAGELNKLPFGGVWNAVLKLNVKRRYDTTYGTYTINITVNLTDKGNIQIWLPQFKSNARVDLNLRPTGGGTYIGRNSVDMCFYDGYSTNSSSLEIRFQDDNSKSDGKFYLKKINDDSKELVYTLSLLLAGKNLTPTNGQALNINTASLETNWNRITAVTMPEISVPVLCWPGRLQLDAKVKNPEAGQYMGNIKITFTPSSQTLDNKQVEKNITVTASVDPVIDLLQADGNALPSAVKLAYSPASKTFESYRVMTQVHTNDATKKVIVKLADTPQLTDVLNSTVQMPISVSWGGQVLSTTAKEFEAAALGYSASGVNGVSSSQELVISAAPSTAGTAPTAGNYSGVVSLVMTLGSDNKQVEKNITVTASVDPVIDLLLEHHHHHH”, “soluble”. For “ADRNLRDLLAPWVPDAPSRALREMTLDSRVAAAGDLFVAVVGHQADGRRYIPQAIAQGVAAIIAEAKDEATDGEIREMHGVPVIYLSQLNERLSALAGRFYHEPSDNLRLVGVTGTNGKTTTTQLLAQWSQLLGEISAVMGTVGNGLLGKVIPTENTTGSAVDVQHELAGLVDQGATFCAMEVSSHGLVQHRVAALKFAASVFTNLSRDHLDYHGDMEHYEAAKWLLYSEHHCGQAIINADDEVGRRWLAKLPDAVAVSMEDHINPNCHGRWLKATEVNYHDSGATIRFSSSWGDGEIESHLMGAFNVSNLLLALATLLALGYPLADLLKTAARLQPVCGRMEVFTAPGKPTVVVDYAHTPDALEKALQAARLHCAGKLWCVFGCGGDRDKGKRPLMGAIAEEFADVAVVTDDNPRTEEPRAIINDILAGMLDAGHAKVMEGRAEAVTCAVMQAKENDVVLVAGKGHEDYQIVGNQRLDYSDRVTVARLLGVIARSHH” the value was “soluble”; for “ADSVFISGHKNADMDSLGAALGIWRMSRLHDLTAYIIIDDQNLQRDVKLVIGKINDEVDAANEKLKNQATDGKTPKLIEQPFITEKKALSLATDQSLLVLVDHSRPSISAAGQLLEKLKSSLIVIDHHRIADESFSEKPILFYVEQYASSTCELVTELLGYEDRRKSPLTKVEATALLGGIQLDTKGFTSHSGSRTFDAASFLRAAGADAQLLSSFGKESK”, “not soluble”; for “AEIDTSSIVEMVQGAEDAPVEVIEYASYTCPHCAAFHEGPYKKLKADFIDTGKVRFIYREVYFDRYGLWASMVARCAGPEKFFGISDLIYKGQAEWSRAGGPAEIAEELRKIGRLAGIENDKLEACLGDATKAQTLVAWYQEHATRDDINSTPSFMINGKKVENQAYDGFKALIEAELGN”, “not soluble”. For “AEPDTESSELSGSVSYRIVSVVNTITASHWDEKELLDKAELIDYPVRKCAHMSEYAILTLLGFLTFSFLHGRGRFLVPIGVTFLYACTDEFHQLFVPGRAGR” the value was “not soluble”. For “AEQLRGEPWFHGKLSRREAEALLQLNGDFLVRESTTTPGQYVLTGSQSGQPKHLLLVDPEGVVRTKDHRFESVSHLISYHMDNHLPIISAGSELCLQQPVERKLLEH”, the “soluble on expression in E. coli” value is “soluble”. For “AFELPPLPYAHDALQPHISKETLEFHHDKHHNTYVVNLNNLVPGTEFEGKTLEEIVKTSSGGIFNNAAQVWNHTFYWNCLSPNAGGQPTGALADAINAAFGSFDKFKEEFTKTSVGTFGSGWGWLVKKADGSLALASTIGAGCPLTIGDTPLLTCDVWEHAYYIDYRNLRPKYVEAFWNLVNWAFVAEQFEGKTYKV” the value was “soluble”. For “AGDIAIIGLAGRYPKAANIHEFWNNLKEGKDCVSEIPESRWDWQRLEGITSPSGKDISKWGGFIDDPDCFDPQFFRITPREAETMDPQERLFLETCWETIEDAGYTPKTLAKPKGRNKRQHVGVFAGVMHKDYTLVGAEEASAENVFPLSLNYAQIANRVSYFCNFHGPSMAVDTVCSSSLTAVHLALESIRHGECDVALAGGVNLSLHPNKYMTYGVWDMFSTDGHCRTFGKDGDGYVPAEGIGAVLLKPLRQAEEDGDRIYAVIKGSAVNHVGTVSGISVPSPVSQADLIETCLEKTGIDPRTISYVEAHGTGTSLGDPIEIQGLVKAFRQYTQDRQFCSIGSVKSNIGHAESAAGISGLSKVALQLHHQKLVPSLHSEELNPYVDFEKSPFYVQHETETWKQPVIKENGEDVPYPRRAGISSFGATGSNAHIILEEH” the value was “soluble”; for “AGQQQPLPVPPLLESRRGQPLFMTVQRAHWSFTPGTRASVWGINGRYLGPTIRVWKGDDVKLIYSNRLTENVSMTVAGLQVPGPLMGGPARMMSPNADWAPVLPIRQNAATLWYHANTPNRTAQQVYNGLAGMWLVEDEVSKSLPIPNHYGVDDFPVIIQDKRLDNFGTPEYNEPGSGGFVGDTLLVNGVQSPYVEVSRGWVRLRLLNASNSRRYQLQMNDGRPLHVISGDQGFLPAPVSVKQLSLAPGERREILVDMSNGDEVSITCGEAASIVDRIRGFFEPSSILVSTLVLTLRPTGLLPLVTDSLPMRLLPTEIMAGSPIRSRDISLGDDPGINGQLWDVNRIDVTAQQGTWERWTVRADEPQAFHIEGVMFQIRNVNGAMPFPEDRGWKDTVWVDGQVELLVYFGQPSWAHFPFYFNSQTLEMADRGSIGQLLVNPVPRSHHHHHH”, “soluble”. For “AHHHHHHASAKWVCKICGYIYDEDAGDPDNGISPGTKFEELPDDWVCPICGAPKSEFEKLEDGSACYSSSPEVIVLREYLLIKIHEDGVIKIPQELAYEVGLVKGAYFLVEIDTDIKELHVERVALPGKKLVEIELVVEDKPGVLAKIAGILGKNGINILFNEAEELESLGLSAIVAVVDVSGAKISLKDLESTLKEINEVKEVKIVEIE” the value was “soluble”; for “AHHHHHHASAKWVCKICGYIYDEDAGDPDNGISPGTKFEELPDDWVCPICGAPKSEFEKLEDGSPKLMTGFVRASGYANKVRRVLFAITRGKVFPEEVVKAAGELNKIIFEKLQEMGVKKEDVVRISVDFNIEDGKIVWNLDSLEIETYKKEEEEKLALAMEEVEHMEKMFEETVKELEALSDKLREISKEISELVERMKQEYTGLKLRSE”, “soluble”.
